Results published in patent publication WO2006003999A1 (dated 2006).

T1: human B7RP-1-Fc (human, UniProt O75144 19-256, limits assumed)
T1 construct: not shown: Fc part
T1 sequence (looked up): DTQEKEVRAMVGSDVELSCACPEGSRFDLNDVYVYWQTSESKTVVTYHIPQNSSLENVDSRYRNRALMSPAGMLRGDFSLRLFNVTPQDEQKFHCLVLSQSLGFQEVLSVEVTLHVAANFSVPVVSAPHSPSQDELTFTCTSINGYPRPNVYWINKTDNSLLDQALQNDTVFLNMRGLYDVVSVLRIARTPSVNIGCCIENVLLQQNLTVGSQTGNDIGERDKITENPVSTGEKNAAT

B1: human anti-human B7RP-1 single-chain Fv antibody clone 223 (scFv, part only; not given: linker and E tag, not shown: small tags and cut ends)
scFv, part: EVQLLQSGADVKKPGASVKVSCTASGYTFTAYYLNWVRQAPGQGLEWMGWLNPTSGDTYYAQKFQGRVTMTRDTSINTAYMELSSLKSDDTAVYYCARDIRSIEVPFDLWGQGTLVTVSSGIVLTQSPGTLSLSPGERVALSCRASQSVTSSFVAWYQQKPGQTPRLLVYGASSRVPGIPDRFSGNGSGTDFTLTITRLEPEDFAIYYCQYYGDSPYTFGQGTKVDIKR
B2: ICOS-Fc (Fc fusion, human, UniProt Q9Y6W8 21-140, looked up)
chain: EINGSANYEMFIFHNGGVQILCKYPDIVQQFKMQLLKGGQILCDLTKTKGSGNTVSIKSLKFCHSQLSNNSVSFFLYNLDHSHANYYFCNLSIFDPPPFKVTLTGGYLHIYESQLCCQLK
notes: also called ICOS (Inducible costimulator) Fc fusion; biotin-labeled ICOS-Fc; not shown: Fc part

Tests used:
human B7RP-1-Fc [1] = target: T1, human B7RP-1-Fc; assay: SPR (BIAcore), B7RP-1-Fc immobilised on CM5 or captured by anti-human Fc F(ab')2, scFv injected at 100 nM
human B7RP-1-Fc [2] = target: T1, human B7RP-1-Fc; assay: SPR (BIAcore), ICOS-Fc immobilised on CM5, B7RP-1-Fc injected

| Binder | Kd (human B7RP-1-Fc [1]) [nM] | Kd (human B7RP-1-Fc [2]) [nM] |
| --- | --- | --- |
| B1 | 13 to 15 | – |
| B2 | – | ~7 |
